Measurements: PMC12627087, “mRNA delivery of circumsporozoite protein epitope-based malaria vaccines induces protection in a mouse model” (NPJ Vaccines, 2025)
Substitutions are numbered along the chain they refer to.

B1: J3 24mer (other)
chain: KLKQPADGNPDPNANPNVDPNANPNVDPNANPNVDPLSKDIIKLLNEQVNKEMQSSNLYMSMSSWCYTHSLDGAGLFLFDHAAEEYEHAKKLIIFLNENNVPVNLTSISAPEHNFTGLTQIFQKAYEHEQNISESINNITDHAIKSKDHATFNFLQWYVAEQHEEEVLFKDILDKIELIGNENHGLYLADQYVKGIAKSRKS
modifications: glycosylated (engineered glycosylation sites)
notes: Plasmodium falciparum circumsporozoite protein (PfCSP), strain 3D7; J3, full-length junctional peptide beginning with Region I; Self-assembling ferritin nanoparticle; cloned into pHLsec between the leader and a double stop codon (AgeI/KpnI); also called peptide J3-24mer; source: FreeStyle 293 F cells, transfected, purified (snowdrop lectin agarose, Superose 6 SEC); copies: 24
B2: C-term MD1 24mer (other)
chain: EPSDNHTKSYYAKIQNSLSTEWSPCSVTCGNGIQVRIKPGSANKPKANLTYANDIEKKICKMEKCGGSLSKDIIKLLNEQVNKEMQSSNLYMSMSSWCYTHSLDGAGLFLFDHAAEEYEHAKKLIIFLNENNVPVNLTSISAPEHNFTGLTQIFQKAYEHEQNISESINNITDHAIKSKDHATFNFLQWYVAEQHEEEVLFKDILDKIELIGNENHGLYLADQYVKGIAKSRKS
modifications: glycosylated (engineered glycosylation sites)
notes: Plasmodium falciparum circumsporozoite protein (PfCSP), strain 3D7; C-terminal αTSR domain, Rosetta-designed variant MD1; linker; Self-assembling ferritin nanoparticle; cloned into pHLsec between the leader and a double stop codon (AgeI/KpnI); also called modified-1 C-term 24mer; MD1 αTSR 24mer; source: FreeStyle 293 F cells, transfected, purified (snowdrop lectin agarose, Superose 6 SEC); …
B3: C-term WT 24mer (other)
chain: B2 chain with N5K, T7I, S9E, Y11L, A12N, A47D, N48E, T50D
modifications: glycosylated (engineered glycosylation sites)
notes: Plasmodium falciparum circumsporozoite protein (PfCSP), strain 3D7; wild-type C-terminal αTSR domain, without the C-terminal linker; linker; Self-assembling ferritin nanoparticle; cloned into pHLsec between the leader and a double stop codon (AgeI/KpnI); also called wild-type C-terminal domain on 24mer; WT αTSR 24mer; source: FreeStyle 293 F cells, transfected, purified (snowdrop lectin agarose, …)
B4: P1 60mer (other)
chain: YGSSSNTRVLNELNYGSGNGTGGSMQIYEGKLTAEGLRFGIVASRANHALVDRLVEGAIDAIVRHGGREEDITLVRVCGSWEIPVAAGELARKENISAVIAIGVLCRGATPSFDYIASEVSKGLADLSLELRKPITFGVITADTLEQAIEAAGTCHGNKGWEAALCAIEMANLFKSLRGGSNGTGGSGGSNGT
modifications: glycosylated (engineered glycosylation sites)
notes: Plasmodium falciparum circumsporozoite protein (PfCSP), strain 3D7; linker between the peptide and lumazine synthase; C-terminal extension with two added glycosylation sites; Self-assembling lumazine synthase nanoparticle; cloned into pHLsec between the leader and a double stop codon (AgeI/KpnI); source: FreeStyle 293 F cells, transfected, purified (snowdrop lectin agarose, Superose 6 SEC); …
B5: J3R3 60mer (other)
chain: KLKQPADGNPDPNANPNVDPNANPNVDPNANPNVDPNANPNANPNANPGSGNGTGGSMQIYEGKLTAEGLRFGIVASRANHALVDRLVEGAIDAIVRHGGREEDITLVRVCGSWEIPVAAGELARKENISAVIAIGVLCRGATPSFDYIASEVSKGLADLSLELRKPITFGVITADTLEQAIEAAGTCHGNKGWEAALCAIEMANLFKSLRGGSNGTGGSGGSNGT
modifications: glycosylated (engineered glycosylation sites)
notes: Plasmodium falciparum circumsporozoite protein (PfCSP), strain 3D7; J3R3, junctional peptide with three added NANP repeats; linker between the peptide and lumazine synthase; C-terminal extension with two added glycosylation sites; Self-assembling lumazine synthase nanoparticle; cloned into pHLsec between the leader and a double stop codon (AgeI/KpnI); source: FreeStyle 293 F cells, transfected, …
B6: P9 24mer (other)
chain: KQENWYSLKKNSRSLLSKDIIKLLNEQVNKEMQSSNLYMSMSSWCYTHSLDGAGLFLFDHAAEEYEHAKKLIIFLNENNVPVNLTSISAPEHNFTGLTQIFQKAYEHEQNISESINNITDHAIKSKDHATFNFLQWYVAEQHEEEVLFKDILDKIELIGNENHGLYLADQYVKGIAKSRKS
modifications: glycosylated (engineered glycosylation sites)
notes: Plasmodium falciparum circumsporozoite protein (PfCSP), strain 3D7; Self-assembling ferritin nanoparticle; cloned into pHLsec between the leader and a double stop codon (AgeI/KpnI); source: FreeStyle 293 F cells, transfected, purified (snowdrop lectin agarose, Superose 6 SEC); copies: 24
B7: C-term WT 60mer (other)
chain: EPSDKHIKEYLNKIQNSLSTEWSPCSVTCGNGIQVRIKPGSANKPKDELDYANDIEKKICKMEKCGGSMQIYEGKLTAEGLRFGIVASRANHALVDRLVEGAIDAIVRHGGREEDITLVRVCGSWEIPVAAGELARKENISAVIAIGVLCRGATPSFDYIASEVSKGLADLSLELRKPITFGVITADTLEQAIEAAGTCHGNKGWEAALCAIEMANLFKSLRGGSNGTGGSGGSNGT
modifications: glycosylated (engineered glycosylation sites)
notes: Plasmodium falciparum circumsporozoite protein (PfCSP), strain 3D7; wild-type C-terminal αTSR domain, without the C-terminal linker; linker; C-terminal extension with two added glycosylation sites; Self-assembling lumazine synthase nanoparticle; cloned into pHLsec between the leader and a double stop codon (AgeI/KpnI); also called wild-type C-terminal domain on 60mer; WT αTSR 60mer; source: …
B8: C-term MD1 60mer (other)
chain: B7 chain with K5N, I7T, E9S, L11Y, N12A, D47A, E48N, D50T
modifications: glycosylated (engineered glycosylation sites)
notes: Plasmodium falciparum circumsporozoite protein (PfCSP), strain 3D7; C-terminal αTSR domain, Rosetta-designed variant MD1; linker; C-terminal extension with two added glycosylation sites; Self-assembling lumazine synthase nanoparticle; cloned into pHLsec between the leader and a double stop codon (AgeI/KpnI); also called modified-1 C-term 60mer; MD1 αTSR 60mer; source: FreeStyle 293 F cells, …
B9: J3R3 24mer (other)
chain: KLKQPADGNPDPNANPNVDPNANPNVDPNANPNVDPNANPNANPNANPLSKDIIKLLNEQVNKEMQSSNLYMSMSSWCYTHSLDGAGLFLFDHAAEEYEHAKKLIIFLNENNVPVNLTSISAPEHNFTGLTQIFQKAYEHEQNISESINNITDHAIKSKDHATFNFLQWYVAEQHEEEVLFKDILDKIELIGNENHGLYLADQYVKGIAKSRKS
modifications: glycosylated (engineered glycosylation sites)
notes: Plasmodium falciparum circumsporozoite protein (PfCSP), strain 3D7; J3R3, junctional peptide with three added NANP repeats; Self-assembling ferritin nanoparticle; cloned into pHLsec between the leader and a double stop codon (AgeI/KpnI); source: FreeStyle 293 F cells, transfected, purified (snowdrop lectin agarose, Superose 6 SEC); copies: 24
B10: P15 24mer (other)
chain: DNEKLRKPKHKKLKQLSKDIIKLLNEQVNKEMQSSNLYMSMSSWCYTHSLDGAGLFLFDHAAEEYEHAKKLIIFLNENNVPVNLTSISAPEHNFTGLTQIFQKAYEHEQNISESINNITDHAIKSKDHATFNFLQWYVAEQHEEEVLFKDILDKIELIGNENHGLYLADQYVKGIAKSRKS
modifications: glycosylated (engineered glycosylation sites)
notes: as for B6
B11: J3 60mer (other)
chain: KLKQPADGNPDPNANPNVDPNANPNVDPNANPNVDPGSGNGTGGSMQIYEGKLTAEGLRFGIVASRANHALVDRLVEGAIDAIVRHGGREEDITLVRVCGSWEIPVAAGELARKENISAVIAIGVLCRGATPSFDYIASEVSKGLADLSLELRKPITFGVITADTLEQAIEAAGTCHGNKGWEAALCAIEMANLFKSLRGGSNGTGGSGGSNGT
modifications: glycosylated (engineered glycosylation sites)
notes: Plasmodium falciparum circumsporozoite protein (PfCSP), strain 3D7; J3, full-length junctional peptide beginning with Region I; linker between the peptide and lumazine synthase; C-terminal extension with two added glycosylation sites; Self-assembling lumazine synthase nanoparticle; cloned into pHLsec between the leader and a double stop codon (AgeI/KpnI); also called peptide J3-60mer; source: …
B12: (NANP)6 24mer (other)
chain: NANPNANPNANPNANPNANPNANPLSKDIIKLLNEQVNKEMQSSNLYMSMSSWCYTHSLDGAGLFLFDHAAEEYEHAKKLIIFLNENNVPVNLTSISAPEHNFTGLTQIFQKAYEHEQNISESINNITDHAIKSKDHATFNFLQWYVAEQHEEEVLFKDILDKIELIGNENHGLYLADQYVKGIAKSRKS
modifications: glycosylated (engineered glycosylation sites)
notes: Plasmodium falciparum circumsporozoite protein (PfCSP), strain 3D7; (NANP)6, 24-residue NANP repeat peptide; Self-assembling ferritin nanoparticle; cloned into pHLsec between the leader and a double stop codon (AgeI/KpnI); source: FreeStyle 293 F cells, transfected, purified (snowdrop lectin agarose, Superose 6 SEC); copies: 24
B13: P8 60mer (other)
chain: NYYGKQENWYSLKKNGSGNGTGGSMQIYEGKLTAEGLRFGIVASRANHALVDRLVEGAIDAIVRHGGREEDITLVRVCGSWEIPVAAGELARKENISAVIAIGVLCRGATPSFDYIASEVSKGLADLSLELRKPITFGVITADTLEQAIEAAGTCHGNKGWEAALCAIEMANLFKSLRGGSNGTGGSGGSNGT
modifications: glycosylated (engineered glycosylation sites)
notes: as for B4
B14: J2 24mer (other)
chain: KLKQPADGNPDPNANPNVDPNANPNVDPLSKDIIKLLNEQVNKEMQSSNLYMSMSSWCYTHSLDGAGLFLFDHAAEEYEHAKKLIIFLNENNVPVNLTSISAPEHNFTGLTQIFQKAYEHEQNISESINNITDHAIKSKDHATFNFLQWYVAEQHEEEVLFKDILDKIELIGNENHGLYLADQYVKGIAKSRKS
modifications: glycosylated (engineered glycosylation sites)
notes: Plasmodium falciparum circumsporozoite protein (PfCSP), strain 3D7; J2, minimal junction peptide beginning with Region I; Self-assembling ferritin nanoparticle; cloned into pHLsec between the leader and a double stop codon (AgeI/KpnI); also called peptide J2-24mer; source: FreeStyle 293 F cells, transfected, purified (snowdrop lectin agarose, Superose 6 SEC); copies: 24
B15: P9 60mer (other)
chain: KQENWYSLKKNSRSLGSGNGTGGSMQIYEGKLTAEGLRFGIVASRANHALVDRLVEGAIDAIVRHGGREEDITLVRVCGSWEIPVAAGELARKENISAVIAIGVLCRGATPSFDYIASEVSKGLADLSLELRKPITFGVITADTLEQAIEAAGTCHGNKGWEAALCAIEMANLFKSLRGGSNGTGGSGGSNGT
modifications: glycosylated (engineered glycosylation sites)
notes: as for B4
B16: P2 24mer (other)
chain: SNTRVLNELNYDNAGLSKDIIKLLNEQVNKEMQSSNLYMSMSSWCYTHSLDGAGLFLFDHAAEEYEHAKKLIIFLNENNVPVNLTSISAPEHNFTGLTQIFQKAYEHEQNISESINNITDHAIKSKDHATFNFLQWYVAEQHEEEVLFKDILDKIELIGNENHGLYLADQYVKGIAKSRKS
modifications: glycosylated (engineered glycosylation sites)
notes: as for B6
B17: (NANP)6 60mer (other)
chain: NANPNANPNANPNANPNANPNANPGSGNGTGGSMQIYEGKLTAEGLRFGIVASRANHALVDRLVEGAIDAIVRHGGREEDITLVRVCGSWEIPVAAGELARKENISAVIAIGVLCRGATPSFDYIASEVSKGLADLSLELRKPITFGVITADTLEQAIEAAGTCHGNKGWEAALCAIEMANLFKSLRGGSNGTGGSGGSNGT
modifications: glycosylated (engineered glycosylation sites)
notes: Plasmodium falciparum circumsporozoite protein (PfCSP), strain 3D7; (NANP)6, 24-residue NANP repeat peptide; linker between the peptide and lumazine synthase; C-terminal extension with two added glycosylation sites; Self-assembling lumazine synthase nanoparticle; cloned into pHLsec between the leader and a double stop codon (AgeI/KpnI); also called (NANP)6 peptide 60mer; source: FreeStyle 293 F …
B18: P2 60mer (other)
chain: SNTRVLNELNYDNAGGSGNGTGGSMQIYEGKLTAEGLRFGIVASRANHALVDRLVEGAIDAIVRHGGREEDITLVRVCGSWEIPVAAGELARKENISAVIAIGVLCRGATPSFDYIASEVSKGLADLSLELRKPITFGVITADTLEQAIEAAGTCHGNKGWEAALCAIEMANLFKSLRGGSNGTGGSGGSNGT
modifications: glycosylated (engineered glycosylation sites)
notes: as for B4
B19: J2 60mer (other)
chain: KLKQPADGNPDPNANPNVDPNANPNVDPGSGNGTGGSMQIYEGKLTAEGLRFGIVASRANHALVDRLVEGAIDAIVRHGGREEDITLVRVCGSWEIPVAAGELARKENISAVIAIGVLCRGATPSFDYIASEVSKGLADLSLELRKPITFGVITADTLEQAIEAAGTCHGNKGWEAALCAIEMANLFKSLRGGSNGTGGSGGSNGT
modifications: glycosylated (engineered glycosylation sites)
notes: Plasmodium falciparum circumsporozoite protein (PfCSP), strain 3D7; J2, minimal junction peptide beginning with Region I; linker between the peptide and lumazine synthase; C-terminal extension with two added glycosylation sites; Self-assembling lumazine synthase nanoparticle; cloned into pHLsec between the leader and a double stop codon (AgeI/KpnI); also called peptide J2-60mer; short junctional …
B20: P8 24mer (other)
chain: NYYGKQENWYSLKKNLSKDIIKLLNEQVNKEMQSSNLYMSMSSWCYTHSLDGAGLFLFDHAAEEYEHAKKLIIFLNENNVPVNLTSISAPEHNFTGLTQIFQKAYEHEQNISESINNITDHAIKSKDHATFNFLQWYVAEQHEEEVLFKDILDKIELIGNENHGLYLADQYVKGIAKSRKS
modifications: glycosylated (engineered glycosylation sites)
notes: as for B6
B21: P1 24mer (other)
chain: YGSSSNTRVLNELNYLSKDIIKLLNEQVNKEMQSSNLYMSMSSWCYTHSLDGAGLFLFDHAAEEYEHAKKLIIFLNENNVPVNLTSISAPEHNFTGLTQIFQKAYEHEQNISESINNITDHAIKSKDHATFNFLQWYVAEQHEEEVLFKDILDKIELIGNENHGLYLADQYVKGIAKSRKS
modifications: glycosylated (engineered glycosylation sites)
notes: as for B6

Target: the molecule itself
Experiment: SEC + SEC-MALS + other: negative stain electron microscopy; self-assembly of the protomer into the nanoparticle; Superose 6 10/300 at 0.5 ml/min with DAWN HELEOS II and Optilab T-rEX detectors, glycan mass corrected by protein-conjugate analysis; nsEM at 0.1 mg/ml in HBS, uranyl formate

Does B1 bind?
Result: binds

Does B2 bind?
Result: binds

Does B3 bind?
Result: binds

Does B4 bind?
Result: binds

Does B5 bind?
Result: binds

Does B6 bind?
Result: binds

Does B7 bind?
Result: binds

Does B8 bind?
Result: binds

Does B9 bind?
Result: binds

Does B10 bind?
Result: binds

Does B11 bind?
Result: binds

Does B12 bind?
Result: binds

Does B13 bind?
Result: binds

Does B14 bind?
Result: binds

Does B15 bind?
Result: binds

Does B16 bind?
Result: binds

Does B17 bind?
Result: binds

Does B18 bind?
Result: binds

Does B19 bind?
Result: binds

Does B20 bind?
Result: binds

Does B21 bind?
Result: binds
